{"source": "paper PMC7327521", "target": "(pY1-CTD)2, FAM-labelled tyrosine-phosphorylated CTD diheptad", "experiment": "fluorescence polarisation"}
{"substance": "Spt6-tSH2 R1281E/S1284A/R1285E (from UniProt Q6FLB1 1250-1444) (domain or fragment)", "values": [{"measurement": "Kd", "value": 48.3, "unit": "µM"}]}
